Source: US20260273045A1

Target: OVA peptide SIINFEKL bound to H-2Kb MHC I on mouse phDC / BMDC (mouse)
Test: cell-based or functional assay

“T cell receptor of OVA-specific OT1 CD8 T cells (C57Bl/6-Tg (TcraTcrb)1100Mjb/J mice)” gave a Proliferation of the OT1 CD8 T cells (CFSE dilution), coculture with titrated numbers of OVA mRNA LNP-transduced phDC of under 47%.
